The results in this text go back to US20070060518A1 (MANNKIND, published 2007).

Like-named read-outs stand apart in the source and are kept apart here. Numbered stars: 1 amine (or outer) side, 2 acyl side, 3 side chain; on linkers, the order of the positions; unused ones are H or OH. Square brackets hold non-standard residues; d marks the D form. Ends that are not written are not given here. O‑methyltyrosine = COc1ccc(C[C@H](N[*:1])C(=O)[*:2])cc1; Phe(4-F) = N[C@@H](Cc1ccc(F)cc1)C(=O)O; Phg = N[C@H](C(=O)O)c1ccccc1; Nle = CCCC[C@H](N)C(=O)O; Nva = CCC[C@H](N)C(=O)O

Assay [1] deals with T1, HLA-A*0201 class I monomer on avidin-coated plates (iTopia Epitope Discovery System) (human).
T1 construct: Bought kit (Beckman Coulter); also called A0201 restricted MHC Class 1 molecules; MHC monomer
As to the kind of experiment: iTopia affinity and off-rate assays (FIG. 19).
Procedure: (§1) Avidin-coated microtiter plates containing class I monomer loaded with a so-called placeholder peptide were used to evaluate peptide binding, affinity and off-rate. […] Assay buffers, anti-MHC-FITC mAb and beta2-microglobulin and control peptides were also supplied with the kits. Binding Assay:
(§2) The plates were then incubated on the allele-specific monomer plates at 37° C. The plates were measured at multiple time points (0, 0.5, 1, 1.5, 2, 4, 6 and 8 hrs) for relative fluorescence intensity. The time required for 50% of the peptide to dissociate from the MHC monomer is defined as the T1/2 value (hrs).

Assay [2] addresses T1, HLA-A*0201 class I monomer on …. As to the kind of experiment: iTopia assays (FIG. 20).
The target is the same in assay [3]. The assay can be described thus: iTopia off-rate assay (FIG. 21).
Procedure: as §1, §2
The target is the same in assay [4]. The assay can be described thus: iTopia off-rate assay.
Procedure: as §2
Assay [5] deals with T2, HLA-A*0201 on T2 cells (human).
T2 construct: whole, on cells; also called HLA-A2
The assay can be described thus: T2 cell binding assay, flow cytometry.

Assay [6] concerns the target T2, HLA-A*0201 on T2 cells. As to the kind of experiment: T2 cell stability assay, flow cytometry.
In assay [7] the target is T2, HLA-A*0201 on T2 cells. As to the kind of experiment: T2 cell binding assay, flow cytometry. This is another data set of the same source.
Assay [8] deals with T2, HLA-A*0201 on T2 cells. The assay can be described thus: T2 cell stability assay, flow cytometry. This is another data set of the same source.
Assay [9] addresses T2, HLA-A*0201 on T2 cells. As to the kind of experiment: T2 cell binding assay, flow cytometry. The source holds these as a separate data set.
Assay [10] addresses T1, HLA-A*0201 class I monomer on …. As to the kind of experiment: iTopia affinity assay (FIG. 26).
Source text: as §1
(§3) In some cases, the reported values are the average of two determinations.
For assay [11] the target is unchanged. As to the kind of experiment: iTopia binding and affinity assays (FIG. 26).
Source text: as §1
(§4) This assay measures the ability of individual peptides to bind HLA molecules under standardized optimal binding conditions. Monomer-coated plates were first stripped, releasing the placeholder peptide and leaving only the MHC heavy chain bound to the plate. Test peptides were then introduced under optimal folding conditions, along with the anti-MHC-FITC mAb. […] The anti-MHC-FITC mAb binds preferentially to a refolded MHC complex. Therefore, the fluorescence intensity resulting from each peptide was related to the peptide's ability to form complex with MHC molecule. Each peptide's binding was evaluated relative to the positive control peptide provided in the kit, and the results were expressed “% binding”.
Assay [12] has the same target. As to the kind of experiment: iTopia binding assay (FIG. 26).
Source text: as §1, §4
For assay [13] the target is unchanged. The assay can be described thus: iTopia affinity and off-rate assays (FIG. 28).
Procedure: as §1, §2, §3
Assay [14] shares this target. As to the kind of experiment: iTopia assays (FIG. 21).

Consider GLPSIPVHPX (norvaline (Nva) at PΩ (P10), also called I297Nva) [PSMA288-297 analog with Nva at PΩ], for which the binding result in assay [1] was “binds”.

GLWSIPVHP[Nva] [PSMA288-297 analog with Trp at P3 and Nva at PΩ]: the binding result in assay [2] is reported as “binds”.

In the case of AVPSIPVHP[Nva] [PSMA288-297 analog with Ala at P1, Val at P2 and Nva at PΩ], the binding result in assay [3] was “binds”.

Turning to GMPSIPVHPI [PSMA288-297 analog with Met at P2], the binding result in assay [1] is listed as “binds”.

On to GLWSIPVHPV [PSMA288-297 analog with Trp at P3 and Val at PΩ], for which the binding result in assay [2] is given as “binds”.

Regarding YMDGTMSQV [Tyrosinase 369-377], the “Half-Life (T1/2)” value in assay [4] is 14.4 h.

On to S[Nva]LMWITQV (also called SNvaLMWITQV) [NY-ESO-1 157-165 (L158Nva, C165V)], for which, in assay [4], the “Half-Life (T1/2)” value amounted to 17 h.

KISEKIFYV [SSX2 41-49 (A42I)]: in the assay with HLA-A*0201 on T2 cells [5], it took 8.8 µM to reach a half-maximal effect (EC50) and the “Relative affinity (1/RA)” value was 1.7. For the same molecule, in the assay with HLA-A*0201 on T2 cells [6], the “Stability (T1/2)” value came to 22.5 h.

As to KLSEKIFYI [SSX2 41-49 (A42L, V49I)], the “Relative affinity (1/RA)” value with HLA-A*0201 on T2 cells [7] is 2.6.

As for FASEKIFYV [SSX2 41-49 (K41F)], the “Stability (T1/2)” value with HLA-A*0201 on T2 cells [8] is over 24 h. For the same molecule, in the assay with HLA-A*0201 on T2 cells [9], it took 9.55 µM to reach a half-maximal effect (EC50) and the “Relative affinity (1/RA)” value was found to be 1.5.

Regarding KASEKIFYI [SSX2 41-49 (V49I)], in the assay with HLA-A*0201 on T2 cells [7], the “Relative affinity (1/RA)” value is 1.

In the case of YASEKIFYV [SSX2 41-49 (K41Y)], in the assay with HLA-A*0201 on T2 cells [8], the “Stability (T1/2)” value was over 24 h. For the same molecule, in the assay with HLA-A*0201 on T2 cells [9], the EC50 was found to be 8.74 µM and the “Relative affinity (1/RA)” value turned out to be 1.7.

For KMSEKIFYV [SSX2 41-49 (A42M)], in the assay with HLA-A*0201 on T2 cells [5], the EC50 worked out at 8.8 µM and the “Relative affinity (1/RA)” value is 1.7. Besides, the “Stability (T1/2)” value with HLA-A*0201 on T2 cells [6] amounted to 22.5 h.

With KVSEKIFYI [SSX2 41-49 (A42V, V49I)], in the assay with HLA-A*0201 on T2 cells [7], the “Relative affinity (1/RA)” value stood at 1.1.

In the case of SLLQHLIGA [PRAME425-433 analog with Ala at PΩ], the “fold change of ED50 against the native peptide” value in [10] is over 10 fold.

Take SMLQHLIGL [PRAME425-433 analog with Met at P2]: the binding result in assay [11] is “binds”.

Turning to KLLQHLIGL (also called Lys P1 analog) [PRAME425-433 analog with Lys at P1], the “fold change of ED50 against the native peptide” value in assay [10] was about 6 fold.

SILQHLIGL [PRAME425-433 analog with Ile at P2]: the binding result in assay [11] is given as “binds”.

With SLLQHLIGI [PRAME425-433 analog with Ile at PΩ], the binding result in assay [12] is reported as “binds”.

With YLLQHLIGL [PRAME425-433 analog with Tyr at P1], in assay [11], the binding result is given as “binds”.

On to TLLQHLIGL [PRAME425-433 analog with Thr at P1], for which the binding result in assay [11] is “binds”.

In the case of SLLQHLIGV [PRAME425-433 analog with Val at PΩ], the binding result in assay [12] is given as “binds”.

For SVLQHLIGL [PRAME425-433 analog with Val at P2], the binding result in assay [12] was “binds”.

Take YMDGTMSQX (norvaline (Nva) at position 377 (P9)) [Tyrosinase 369-377 (V377Nva)]: the “Half-Life (T1/2)” value in [4] is 14.7 h.

For the molecule [O‑methyltyrosine]ASEKIFYV [SSX2 41-49 (K41(O-methyl Tyr))], the “Stability (T1/2)” value with HLA-A*0201 on T2 cells [8] came out at 20 h. Besides, in the assay with HLA-A*0201 on T2 cells [9], a half-maximal effect (EC50) was put at 19.5 µM and the “Relative affinity (1/RA)” value came to 0.8.

Regarding A[Nle]WSIPVHPI [PSMA288-297 analog with Ala at P1, Nle at P2 and Trp at P3], the binding result in assay [3] is “binds”.

B1: Prame 425-433 (L426Nva, L433Nle) (peptide)
peptide: S[Nva]LQHLIG[Nle]
notes: also called S{Nva}LQHLIG{Nle}; L426Nva L433Nle analog
For the molecule B1, the “Half-Life (T1/2)” value in assay [4] is 16.9 h.

For the molecule T[Nva]LQHLIG[Nle] (also called T{Nva}LQHLIG{Nle}) [PRAME425-433 S425T L426Nva L433Nle analog], the binding result in assay [13] is “binds”.

[Phg]ASEKIFYV [SSX2 41-49 (K41(Phg))]: the “Stability (T1/2)” value with HLA-A*0201 on T2 cells [8] was over 24 h. In the assay with HLA-A*0201 on T2 cells [9], the response was half-maximal at 5.83 µM (EC50) and the “Relative affinity (1/RA)” value stood at 2.5.

Take [Phe(4-F)]ASEKIFYV [SSX2 41-49 (K41(Phe-4F))]: the “Stability (T1/2)” value with HLA-A*0201 on T2 cells [8] is over 24 h.

Turning to G[Nva]WSIPVHPV [PSMA288-297 Nva/W/V analog (Nva at P2, Trp at P3, Val at PΩ)], the binding result in assay [14] is listed as “binds”.

Take A[Nva]WSIPVHPI [PSMA288-297 analog with Ala at P1, Nva at P2 and Trp at P3]: the binding result in [3] was “binds”.
